The values below come from a protein production outcome set (Wang et al. 2014).
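Also: failed if final PepcDB status was selected cloned or expressed and not failed if soluble or beyond.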

This series is described as follows: label from the status in PepcDB records.
As to “MSDSWARSPSLSGYARQEGKFRVAIGAPRGDIPGQGDSSMSTQTAVLKKDITPQGSDYEIVRRAIEKISLDYRDQPSLEELAEEVGETPTGLQKLFTRWAGLSPKAFLQAVTLDHARRLLDSGMPLLETSFELGMSGPGRLHDLFVTHEAMSPGDYKTRGAGLTIRYGYHASPFGTALIMATDRGLAGLAFSDPGEERAAFADMSSRWPNAIYVEDLAATGPYAARIFDPTLWRPDQPLHVVMIGTDFQVRVWEALLQIPMGKARTYSSIAASIGAPSASRAVGAANGANPLSFVVPCHRAIGKSGDLTGYHWGLTRKRAILGWEAGQVSS”, the protein production result was “failed”.
The value for “MSDTGNYLGPFLVNDFGDRYLYQVNRNAFNSIGSDSLYASTYGESLFAEYQLNIIIGTDSGLFPTYVVNKGIPSGSRYLFIELPEVIERLSEEGILKELPPEVIIATPDTWEEIATDLQINEYVFIDAVRVNESIASSDANLPEYRDISWNINLNVRTLVHETHASINCTQYILRQLENLAENRVAFSRTLVDTFKGRTAVILAGGPSLREALPWVRENRDRLVLIAVSRISKILQSEQIVPHLVATVDPQKVSFEVSREMLYFADMEESPVLVSSYHASPLLVGQWGGRSAYTDSLFPWSTPLNIETHLYTGPTVSNYALSIAMNMGCETIVLAGVDLCFSREGHTHAAGSAENKVGPDLGQLSPRIETNGGWLADTNHGYAHSLEILKLQAELAVSKGHRLYNISLGAAKIPLIEYRPPSEIDLPEDTISTSALIDKYLPPPTSKARLSHYRKIKKELERAQHKFKEILSLSQEALECTDGLFGRNGKERSFRHKVQMDKIERKLDRRYGDFSLLVKQFGLKKFLSILRTPKEEQEWTDEQIEKATRDYYQAYMAGTIQLLAVTNSALSRIEARIEEEKSSPDCDLFISQWLRDGQPGRGRFWLRNHPVTAQCLSEAILGKFRELDDQFTHLMTDEQTIRMELLEKGYDLKHIRSKARLLFRRGEREELEAMAAGIASHPDREKAEPYLYFINGLIAELQQEPNRAIECYQHLLVDPPHPTTEDALRQIASLAIAGNDVENALLALECLSRMSPAYLSPYGEILKALGRYDEAFDAFNRYLSIAPKDVGTLVTLGILCRDAGLADTARDLFARVLENDPTNRVALSQLEGLAAPSND” was “failed”.
The value for “MSDVMTLKKSDIYNSDGSVKHTAFIHDKKTGKANTLYLKPVQQDLLQYHDWLVQENINSEWLFPSASHHNRHITEKQFYKVMARVGDLLSINYHYLGTHTMRKTGAYRVYTQSNYNIGLVMHLLNHSSEVMTLTYLGLDHASRETMLDQIDFG” was “failed”.
The value for “MSEAERAGASRQDKSGRLLAGRYRLGDVLGRGGMGTVWRAEDETLGRTVAVKELRFPTSIDEDEKRRLITRTLREAKAIARIRNNSAVTVFDVVDEDNRPWIVMELVEGKSLAEAIREDGLLEPKRAAEVGLAILDVLRAAHREGILHRDVKPSNVLIAEDGRVVLTDFGIAQVEGDPSITSTGMLVGAPSYISPERARGHKPGPAADLWSLGGLLYASVEGVPPYDKGSAIATLTAVMTEPLEEPKNAGPLRSVIYGLLAKDPEQRLDDAGARAMLNEVLHAPQPKEPEPVDATRVVALPPVPEEGTGKGSSGGSGAKRGEEAADRFRGALRSVRKAAGAATASAAARAKSGGTDVSGGTGAAGAGTSSAGSSASASAPAPGKPGAAAVGKPNPSSAGKPGSSAAATPAGTGSGVGQGTAVGGGGRESAVVGSNSGPVKPSSGWPVVPEPDRPPRSVPRAPLTDVVPRRTLVIVAVVVVLAVLGVVLALTLGGDDGSSKDNKGSSDTKAAASSGTSSGTTAGSSGTPKAGGSGSGSGGTHTDSGSKDNTGTGSDEQETDDSSSAGTASGSGGSDDSGSGSGDSSVKTYKSSQGFSIGLPKGWKYQSTGAAGARFTGPDGQKLLVGWTTTPKDDPVADWKNQEQYMVRSQYKRIRIEQVDYRGWNTADWEFTYTEGGTKYRSIDRGFVVNAHQGYALMYTAKASEWDSDLRKDTWQTLAKTFQPKS” was “failed”; that for “MSEAIRRAEAIDFGPDAQDLLWLSQDPVAVFDAEDRLRAANPAYCATFGCDPAEAPSWRQIMRRNHAMRQGALIVTEDFEGWLAAAAASRGRVPFRAYEAALHDGRWIWITETTAPDGRMLVHATDVTRLRSESLALRSERDAAQRASWTDPLTGVPNRRFVMDHLERWLDQQPRHGTFGTHALAVMDLDRFKQVNDLYGHTAGDAVLVSFCRITTDSIRSVDLFGRFGGEEFVLFMPNCPLETAQARLERLQEALAVAVVSPDLPALRCTFSAGLVAMRRDKDVHHAIRRADRLLYRAKADGRACVRAEI” was “failed”.
“MSEAKWLSLLGLAARARQLLTGEEQVVKAVQNGQVTLVILSSDAGIHTKKKLLDKCGSYQIPVKVVGNRQMLGRAIGKHERVVIGVKDAGFSRKLAALIDE”: the protein production entry was “not failed”.
For “MSEALSDSGLPPVQRVVTGHDAHGRAVFKSEDVTPTRMIPSGDASFLLVWTTATVPADNNDETDGRQREAGLTLDGGSVIRVVDMLPGKESPMHRTNSIDYGIVLEGEIELELDDGAKRTVRQGGIIVQRGTNHLWRNTTDKPCRIAFILIEAPAYLHNGQPLPEDKPDHK” the value was “not failed”; for “MSEAPHLTFDLDTPGVSTGHLVVPKGADCEALSLPVFSCNRGEGPSLLITGGNHGNELQGPILARRLVKWLPEAQRCGRIIIVPEINPLAVQAWTRNTPIDGKNLNRVFPGRSDGSVSERIADAISRLLLPVVDTVLDLHSFGPTWDCAPSIISHPIADIDQMTKTVSISKAFKLPVTLLWEHNETDGMFDTLVHRQGKTFICTEFGGGVVSAEALTIYEAGVRNGLIALGLVKGKAEYPTFRQQKTGQTLETTSSDQLKSPSPGIFEPRCSVMDEVEQGDVVGVLHPMGSLSAASIDIRAQSKSTVFAIRSAMYVQGNEEVAILARPLAR”, “not failed”; for “MSEEQDKQRNTRKKENNRLLTKAAIIGVVAGILGGGIAYGGLSAANLNSNTSSSTASSSSSNTGENGSVTTSSSGTTKVNKSKTTSGTMTSAYKKVQNAVVSVLNYKYTSSSSSSSDIYSMFGYGDSDSSDSSSSKKSLTLYSEGSGVIYTTANGKGYIVTNNHVISGAAKVKVILASGKTIAAKVVGKDSTSDLAVLSIDSKYVTQTASFGDSRSLLSGQTVIAIGSPEGSEYASTVTQGIISSPSRTITYNSNQMTVIQTDAAINSGNSGGPLVNSDGQVIGINSMKLSSSSSGDSVEGMGFAIPSNEVVTIVNQLVKKGKITRPQLGIKVAAIADLNSYYKKQLGISTSLKKGLYVASVTSGSAAASAGIKKGDVITAADGKTVNDVATLHSILYSHNVGDKVKITVNRNGKTMTFTVTLQASN”, “failed”.
The value for “MSEGFSSSSIQELYQSLKEITNNADVELFEDRITKLDFESTDEPKHANDIIKDRFLRPSNALPWSLLDMVQDVPHTSSPEDCSGKLDYKELLKVPDPINRTSYQFKRTGLEGKISGYKEEVDLKEVANANASNSLSITRSINHNQNSVRGSTAQLPFTPGGIPMKSVKTDSEQNGSSTMANATKLLHKDGQGLFDIPEGMNRGIKPMDSPAENEDQNGQFKELKQLNEIDNELDIRIEANEAKLKEEEKSAKSISEEIMEEATEETTADNADDAEIDELLPIGIDFGRTKPVSKSVPVKKEWAHVVDLNHKIENFDELIPNPARSWPFELDTFQKEAVYHLEQGDSVFVAAHTSAGKTVVAEYAIAMAHRNMTKTIYTSPIKALSNQKFRDFKETFDDVNIGLITGDVQINPDANCLIMTTEILRSMLYRGADLIRDVEFVIFDEVHYVNDQDRGVVWEEVIIMLPQHVKFILLSATVPNTYEFANWIGRTKQKNIYVISTPKRPVPLEINIWAKKELIPVINQNSEFLEANFRKHKEILNGESAKGAPSKTDNGRGGSTARGGRGGSNTRDGRGGRGNSTRGGANRGGSRGAGAIGSNKRKFFTQDGPSKKTWPEIVNYLRKRELLPMVVFVFSKKRCEEYADWLEGINFCNNKEKSQIHMFIEKSITRLKKEDRDLPQILKTRSLLERGIAVHHGGLLPIVKELIEILFSKGFIKVLFATETFAMGLNLPTRTVIFSSIRKHDGNGLRELTPGEFTQMAGRAGRRGLDSTGTVIVMAYNSPLSIATFKEVTMGVPTRLQSQFRLTYNMILNLLRIEALRVEEMIKYSFSENAKETLQPEHEKQIKVLQEELQTIEYKSCEICDNDIEKFLELMLAYKEATVNLMQEMVKSPSILHILKEGRLVAFRDPNDCLKLGFVFKVSLKDAVCVIMTFTKPYKLPNGEPNHLIYFPKADGYRRRNFPKFQKTDFYMEEVPVTAIEVITKRKFAAPLGKVIKKDVAALNEFNAETNNILDGKTLKEAINIEKQGLKIHQILLDRTNIRDEIFKLKSIKCPNLSQHIVPKFKAHVIKKKIEELYHLMSDQNLSLLPDYEKRLAVLKDTEFIDQNHNVLLKGRVACEINSGYELVLTELILDNFLGSFEPEEIVALLSVFVYEGKTREEEPPIVTPRLAKGKQRIEEIYKKMLCVFNTHQIPLTQDEAEFLDRKRFAMMNVVYEWARGLSFKEIMEMSPEAEGTVVRVITWLDEICREVKTASIIIGNSTLHMKMSRAQELIKRDIVFAASLYL” was “failed”.
Take “MSEKAKKGFKMPSSYTVLLIIIAIMAVLTWFIPAGAFIEGIYETQPQNPQGIWDVLMAPIRAMLGTHPEEGSLIKETSAAIDVAFFILMVGGFLGIVNKTGALDVGIASIVKKYKGREKMLILVLMPLFALGGTTYGMGEETMAFYPLLVPVMMAVGFDSLTGVAIILLGSQIGCLASTLNPFATGIASATAGVGTGDGIVLRLIFWVTLTALSTWFVYRYADKIQKDPTKSLVYSTRKEDLKHFNVEESSSVESTLSSKQKSVLFLFVLTFILMVLSFIPWTDLGVTIFDDFNTWLTGLPVIGNIVGSSTSALGTWYFPEGAMLFAFMGILIGVIYGLKEDKIISSFMNGAADLLSVALIVAIARGIQVIMNDGMITDTILNWGKEGLSGLSSQVFIVVTYIFYLPMSFLIPSSSGLASATMGIMAPLGEFVNVRPSLIITAYQSASGVLNLIAPTSGIVMGALALGRINIGTWWKFMGKLVVAIIVVTIALLLLGTFLPFL”: the protein production result is “failed”.
With “MSEKMRRIVEAAGGIVWRWKAGSDIANDPAIASSKSAQEQLDSIEVCIVHRPKYDDWSWPKGKLEQNETHRHAAVREIGEETGSPVKLGPYLCEVEYPLSEEGKKTRHSHDCTADTKHTLYWMAQPISADDAEHLLDAFGPVHRADVGEINDIVWVSVREARKILSHSTDKDTLAVFVDRVQEGAATAQNLLIVRHAKAESRKSWKGTDANRPITPKGAAMAFALNRELACFNPTRLATSPWLRCQETLQVLSWQTERPMEHINTLTEDAFAEHPAVSWLAFREQITQTLNSRETTAICMHRPVIGGMYDHLRGLCARKQLAKQLIAKSPYMPTGTAMSLFIIDTPQGPSIIDIQKVSPIVY”, the protein production entry is recorded as “failed”.
“MSELNKEMTLLPPPELVQYVGGDFKKVGKEFLKHFIQIGALKSNEKVLDVGCGVGRMAVPLMNYLNDDGAYYGFDLFKDGITWCQNNISTMRNNFHFEHVDIYNQFYNPEGKEDASQYRFPYEDGTFDFIFLTSVFTHLLPKELEHYVSEIVRVLKKDGRCFITFFLINPESSYYLNAGQSTLGFYHRIENCYVVNKDIPNFAVAYPETDICNLLNKYGLEIINKPHYGLWCGRHEYTSYQDIVLTKKSFLEHHHHHH”: the protein production entry was “not failed”.
For “MSELQILIFNAAVFSILAVYHYWKNRKLNIAFYILAYYSICAWGALLYHEHELFHYMRGRETYSIIPFLYLIPVIFLFAYPIIRYDNTRITRIETLNSNFFINLVWILLFIQIVLYIILFPSFLKAILSSNIGDYRNDTYDESEIVQFPNYFFNILCRLYMGARNVVILIAAYGLLVIKTHRKLLKIFLVTSLCFPVYMFTAYASRAVMIMTFFFLVFIFVFLSVFMNVGLKKKIVSYLILILVPISSAFILISNSRFGNLATYMFYRYLGESFNNYNTHFFYELKGNTWGEAYFVFFRKLMGISSNFKTTREKWEWLDNITGVDTHVFYTFVGGLNIEFGFVGTIVIGLLLSFFMVKKMRPYNVLTLPKFIALGMLAYTLINGVFFFVLQGDWGNLEILFTLFFCFLFSKYRTRKYINK”, the protein production result was “failed”.
